Source: paper PMC6370554

Target: biotinylated histone H3K27me3 (21-44) peptide (UniProt P68431)
Test: ELISA

- HRP ELISA signal:background ratio (H3K27me3 over unmodified H3): 6
Substance: Pcαα fusion protein (tandem human CBX8 PCDs, mCherry, VP64) (from UniProt Q9HC52 1-62; Q9HC52 1-62) (designed binder)
